Data from article PMC12892846, “Biodistribution of the Bombesin Receptor-Targeted Radiopharmaceutical Precursor BBN/C1-C2 in a Prostate Cancer Model” (Modern Technologies in Medicine, 2025).
No end group written: not given here.

Columns and labels:
[1] = tested on: PC-3 prostate cancer solid tumor expressing GRPR; assay: Tumor fluorescent imaging on days 2 and 5; type: in vivo, mouse; settings: Cy7.5-labeled peptides, i.v. 19 nmol/kg, PC-3 tumor in Nu/Nu mice
Experimental: (§1) Since Cy7.5-GRP peptide stability was limited, firstly, 48 h at 37°С in phosphate-buffered saline, there were two time points used in the study — 2 and 5 days. Two weeks prior to the investigation, the animals were subcutaneously inoculated into the right side with PC-3 cells (1 mil cells in RPMI-1640, 100 μl (PanEco, Russia), and matrigel, 100 μl (ABW, China)) to form a tumor. When the tumor reached its optimal size (150–200 mm3), the animals (n=10) were divided into the following groups: group 1 animals were administered a pure dye (n=1); group 2 — were given Cy7.5-GRP peptide (n=3); group 3 — were administered Cy7.5-U5-Sth1a toxin (n=3); group 4 — had Cy7.5-BBN/C1-C2 administered (n=3). The animals were anesthetized with 3% isoflurane inhalation (Chemical Iberica, Spain) at the rate of 1 L/min within 10 min, then the dose was reduced up to 2%. The peptides were injected into the caudal vein at the rate of 19 nmol/kg. […] The regions of interest were manually determined along the organ borderline; then using the software, we calculated the total fluorescence for each region. Finally, the average fluorescence of the peptides in the organ was calculated, it being normalized to the organ weight.

[2] = tested on: Nu/Nu mice with PC-3 prostate cancer tumor; assay: In vivo surface fluorescent imaging of biodistribution; set-up: species or system mouse; settings: Cy7.5-labeled peptides, i.v. 19 nmol/kg, Nu/Nu mice with PC-3 tumor, 2 days, n=3
Experimental: The study was carried out on Nu/Nu line male mice aged 9–10 weeks, weighing 26–28 g.
as §1

[3] = tested on: Nu/Nu mice with PC-3 prostate cancer tumor; assay: Semiquantitative ex vivo organ biodistribution on day 5 (fluorescence normalized to organ weight); type: in vivo, mouse; settings: Cy7.5-labeled peptides, i.v. 19 nmol/kg, day 5, harvested organs, n=3
Experimental: as §1

[4] = tested on: patients; settings: patients with AMBA therapy; cited from earlier work
Text: The key feature of these peptides is their ability to internalize inside the cells, acting as receptor agonists. At early stages of developing pharmaceuticals, this ability was an important condition for high and long-term absorption of a tumor by a pharmaceutical. However, currently, it appears to be a substantial deficiency, since radiolabeled agonists provide high absorption of radionuclides. One more major drawback of the ligands based on GRPR agonists is their absorption by normal non-tumor cells, particularly, the pancreatic cells. So, the potent GRPR agonist — AMBA (DOTA-Gl ...

[5] = cited from earlier work
Text: Currently, there have been introduced into clinical practice several radiolabeled ligands targeting GRPR and based on a gastrin-releasing peptide (GRP) analog isolated from amphibian — bombesin (BBN) [[5–8]]. […] In addition to the high concentration of radiopharmaceuticals in non-target organs, there is one more significant problem complicating cancer therapy — pharmaceutical stability.

[6] = Stability analysis of Cy7.5-labeled peptides in phosphate-buffered saline (HPLC); type: physicochemical
Experimental: After synthesis the chemical purity of the peptides was analyzed by reversed-phase chromatography; we used high-efficiency liquid chromatography: LC-20AD XR (Shimadzu, Japan) equipped with a spectrophotometric detector and a column Luna C18(2) ([…]). The elution was gradient, its mobile phase consisted of deionized water and acetonitrile. The acetonitrile content in a mobile phase was increased from 5% at the beginning of the study to 100% at the end of the study within 40 min. The flow rate was 1 ml/min. Detection was performed at a wavelength of 215 nm, using mass spectrometry with the MALDI-TOF MS FLEX mass spectrometer (Bruker Daltonics, Germany).
We studied the stability of both — the whole structures (Cy7.5-BBN/C1-C2, Cy7.5-GRP, Cy7.5-U5-Sth1a) and also the peptide complexes with Cy7.5. So, all peptides were incubated in the phosphate-buffered saline (pH 7.4) for 144 h, at 37°С. Every 24 h we drew the samples and analyzed them using high-efficiency liquid chromatography LC-20AD XR (Shimadzu, Japan), as described above. The stability of the complex with the dye was fixed similarly to the peptide stability fixation, as following from the accumulation of the free dye in samples.

Question: Which results are given for “GRP: a short peptide with affinity to GRPR receptors (VPLPAGGGTVLTKMYPRGNHWAVGHLM; ends and bridges not checked; UniProt P07492 24-50, looked up)”?
Answer: localization of labeled peptide in the tumor on day 2 [1]: detected in the tumor to a greater extent than BBN/C1-C2; main region of binding / accumulation on day 2 [2]: the spleen; organ of excretion on day 2 [2]: the kidney; organs of accumulation / localization, ex vivo [3]: localized in the stomach and the pancreas

Question: Which “absorption by normal organs in patients” value [4] does the source give for “DOTA-Gly-4-aminobenzoyl-BBN(7–14) [AMBA]” here?
Answer: significant absorption of the pharmaceutical by the pancreas and the gastrointestinal tract

Question: With bombesin as the substance, how does the proteolytic stability [5] read?
Answer: low proteolytic stability

Question: Which resistance to proteolysis [5] does the source give for N4-AMA-DIG-[DPhe6,Sar11,LeuNHEt13]BBN here?
Answer: high resistance to proteolysis

Question: Which “time to which peptide stability was limited” value ([6]; 37°C in phosphate-buffered saline) does the source give for “Cy7.5-GRP: GRP peptide labeled with Cyanine7.5 fluorescent dye (VPLPAGGGTVLTKMYPRGNHWAVGHLM; ends and bridges not checked; also: Cy7.5 NHS ester bound to peptide amino group (N-terminus or Lys not given here); UniProt P07492 24-50, looked up)” here?
Answer: 48 h

Question: What about the “chemical purity / stability after 48 h” value ([6]; phosphate-buffered saline pH 7.4, 37°C, 48 h, reversed-phase HPLC C18, detection 215 nm) of the same substance?
Answer: 64.5%

Question: What about the “chemical purity / stability after 144 h” value ([6]; phosphate-buffered saline pH 7.4, 37°C, 144 h, samples every 24 h, reversed-phase HPLC C18, detection 215 nm) of the same substance?
Answer: 46.8%

Question: What about the “chemical purity / stability at the start of incubation” value ([6]; phosphate-buffered saline pH 7.4, 37°C, start of incubation, reversed-phase HPLC C18, detection 215 nm) of the same substance?
Answer: 95.7%
